Measurements published in article PMC3274541, “The Inherited Blindness Protein AIPL1 Regulates the Ubiquitin-Like FAT10 Pathway” (PLoS ONE, 2012).

B1: NUB1-FLAG (NEDD8 ultimate buster-1) (natural protein)
chain: not shown
notes: NEDD8 ultimate buster-1 (NUB1), the shorter splice variant that lacks 14 amino acids in the second UBA domain of NUB1L; also called NUB1-p3XFLAG-CMV; source: SK-N-SH, transfected, in lysate
B2: HA-FAT10 (natural protein, UniProt O15205 1-165, looked up)
chain: MAPNASCLCVHVRSEEWDLMTFDANPYDSVKKIKEHVRSKTKVPVQDQVLLLGSKILKPRRSLSSYGIDKEKTIHLTLKVVKPSDEELPLFLVESGDEAKRHLLQVRRSSSVAQVKAMIETKTGIIPETQIVTCNGKRLEDGKMMADYGIRKGNLLFLACYCIGG
notes: ubiquitin-like modifier FAT10; also called free FAT10; monomeric FAT10; source: SK-N-SH, transfected, in lysate

Tests used:
Assay in all cases: co-IP; SK-N-SH cells co-transfected; lysed in DM buffer (1% n-dodecyl-β-D-maltoside, 10 mM EDTA, protease inhibitors in PBS); 2 µl antibody 2 h at 4°C, Protein G Sepharose overnight at 4°C, 5 washes; western blot; with or without 50 µM MG132 for 4 h
Conditions in all cases: partners not purified
HA-FAT10 = target: B2
[1] = target: B1
[2] = target: T1, Myc-AIPL1 (aryl hydrocarbon receptor interacting protein-like 1), wild type (UniProt Q9NZN9 1-384)
T1 construct: also called pCMV-Tag3C-AIPL1; WT AIPL1; source: SK-N-SH, transfected, in lysate
T1 sequence (looked up): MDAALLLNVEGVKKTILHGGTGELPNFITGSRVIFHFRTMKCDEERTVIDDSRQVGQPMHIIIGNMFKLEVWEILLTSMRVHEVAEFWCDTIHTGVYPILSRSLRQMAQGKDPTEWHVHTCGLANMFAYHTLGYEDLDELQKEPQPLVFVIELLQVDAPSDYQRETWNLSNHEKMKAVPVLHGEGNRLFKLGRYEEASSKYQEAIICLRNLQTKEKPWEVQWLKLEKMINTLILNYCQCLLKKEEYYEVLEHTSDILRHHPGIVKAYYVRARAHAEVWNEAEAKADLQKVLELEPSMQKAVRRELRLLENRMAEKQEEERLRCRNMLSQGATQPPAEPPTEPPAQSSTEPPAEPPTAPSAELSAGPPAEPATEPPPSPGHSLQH

B1
fold increase of the co-precipitate with MG132 over untreated cells (HA-FAT10): ~5 fold

B2
fold increase of the co-precipitate with proteasome inhibitor over untreated cells [1]: ~2 fold
fold increase of the co-precipitate with proteasome inhibitor over untreated cells [2]: ~5 fold
